Measurements taken from the DeepSol protein solubility set.

Assay: soluble on expression in E. coli; label from the status in PepcDB or PDB records
With “MEYRMFDIGVNLTSSQFAKDRDDVVACAFDAGVNGLLITGTNLRESQQAQKLARQYSSCWSTAGVHPHDSSQWQAATEEAIIELAAQPEVVAIGECGLDFNRNFSTPEEQERAFVAQLRIAADLNMPVFMHCRDAHERFMTLLEPWLDKLPGAVLHCFTGTREEMQACVAHGIYIGITGWVCDERRGLELRELLPLIPAEKLLIETDAPYLLPRDLTPKPSSRRNEPAHLPHILQRIAHWRGEDAAWLAATTDANVKTLFGIAF” the “soluble on expression in E. coli” value was “soluble”. With “MKRRLLCALLASTLAQPLTVRADLPDLGEISDASLSLSDEARIGRDALRAMREAGDVVDDPEVNAYLNDVGGRLAAAAAVPGVRFTYFCVADAGINAFAMPGGYVGINIGLMLASQSEGELAAVLGHETAHVAQRHIARMQAANSAASPLLLLGTIVAAALAAKAGSGDGAMGAVSAGMGLSISRQLAFSRDFEREADRVGMQYMSAAGFDVRNMAAFFQRLEQASRYSDNTAYAFLRTHPVTLERISEAQNRALDYPVRMRADSVDYLLVREKLRVLTLSPEEAVSHYSSALQRGLYLNEGANWYGLARAKLLQHDRAGASEALAKARAKLPDNPMLYGLEVEIARDGRDWAAAARAARNGLSAFPRSVSLQLAQLDVALDGGDRKAAQAQLRQLLDSRRDDPALYRREAKLYADKDPLRYHAALGNAFYYEQRYGAALEQYQLAGKAKGDDFYLRSMLEARLREVEKLAKEERKAARNLEHHHHHH” the “soluble on expression in E. coli” value was “soluble”. For “MAHHHHHHMVVLKGGGTTYAVGNGRQMPWEEVPEGFKRRLAEQEEITPCVELRAIAQRCIEVEGFWAPNCVEATEQFHSCQAQHLAGCLPNWTHHNNNNINN”, the “soluble on expression in E. coli” value was “not soluble”. In the case of “AQFQYPFKEVYYLETSPRAHRVILYTKTDRLEFTASLEEVFKQEPRLLQCHRSFLINPANVVHLDKKEKLLFFPNGGSCLIARYKVREVSEAINKLH”, the “soluble on expression in E. coli” value is reported as “not soluble”. With “MSLSGIINNREYRQKVLKEIILELHNGKSVDEVRKRFQELIKGVSTKEISEMEAQLIKEGMKVEEIQRLCDVHAAVFKGSIDQIHHPEKEEGHPVSVLKKENEAVKNYIQSHLTPNLEEIKKSDSHSTRLKLMENISMLFDLDKHYSRKENLIFPYLEKYGITAPPKVMWGVDDEIREALKECKEVINSANKTPNEITEKVESTLKRIEEMIFKEESILLPMCIDTFSEDEWLDIESESDEIGYCLISPSEKWKPKRENVEEKEKSKLANENSEGYIKFDTGILRVNELSAILDTLPLDITFVDKDGTVKYFSGGSERIFARTRAVIGRKVQNCHPPASVHIVEKVVEDLKSGKKDHEDFWLHMGELYVFIRYYAVKDNKGEFIGVLEVTQNIKEIQEITGEKRLIEEGHHHHHH” the “soluble on expression in E. coli” value was “soluble”. For “MSHLDNGFRSLTLQRFPATDDVNPLQAWEAADEYLLQQLDDTEIRGPVLILNDAFGALSCALAEHKPYSIGDSYISELATRENLRLNGIDESSVKFLDSTADYPQQPGVVLIKVPKTLALLEQQLRALRKVVTPDTRIIAGAKARDIHTSTLELFEKVLGPTTTTLAWKKARLINCTFNEPPLADAPQTVSWKLEGTDWTIHNHANVFSRTGLDIGARFFMQHLPENLEGEIVDLGCGNGVIGLTLLDKNPQAKVVFVDESPMAVASSRLNVETNMPEALDRCEFMINNALSGVEPFRFNAVLCNPPFHQQHALTDNVAWEMFHHARRCLKINGELYIVANRHLDYFHKLKKIFGNCTTIATNNKFVVLKAVKLGRRR”, the “soluble on expression in E. coli” value was “soluble”. In the case of “EISLNGYGRFGLQYVEDRGVGLEDTIISSRLRINIVGTTETDQGVTFGAKLRMQWDDGDAFAGTAGNAAQFWTSYNGVTVSVGNVDTAFDSVALTYDSEMGYEASSFGDAQSSFFAYNSKYDASGALDNYNGIAVTYSISGVNLYLSYVDPDQTVDSSLVTEEFGIAADWSNDMISLAAAYTTDAGGIVDNDIAFVGAAYKFNGGGGPKLAKMEKARGGGGDAGTVGLNWYDNGLSTAGDQVTLYGNYAFGATTVRAYVSDIDRAGADTAYGIGADYQFAEGVKVSGSVQSGFANETVADVGVRFDF”, the “soluble on expression in E. coli” value is reported as “soluble”. For “MPRELGESLELRKGRHSVVYLTEKYAIKQFHERFRYNFLKEVKFLTLLQPFFFTPKLYFVDFANLRIVMERLRGRRFDEAFIRKAVERALEACFIMDVMGVEKQEMNHPDKHIIVGDDVYLIDFERARFKDRPSNLTQFCMYLRRFGIEIEKTLLKDYKTSVNCENFSRILHSVVEKLK”, the “soluble on expression in E. coli” value was “not soluble”. With “MSLARRVGIYTRISRDDEGDALGVARQHRDCERLADLRSWQAVKVYEDNDVSAYKRHVVREQFELMLSDLGAGLIDGIVAYDLDRLARQPRDLERLIEIFDERPRLEFATVTNDVNLGTPDGRTMSRIMVAFANKSSHDASRRIKRKHLELAQQGKDSGGPAPYGWLKEDRSKVDPKAAAAIREAQREILAGVRIGTIRTRWQEQGLGNPRAGTKRMAHHHVEHILTSPRLVGYRTYHGEVLNDEDGRPVMGEWEAINTLEEWEAVCAAVAERKQKQPGRSLARKYMLSGIARCGLCKTKIRGQINQRWQPGSKATKFTYQCSVVNGGCGKVGRVGEPVDRLIAELALEEQRARAAATTVPIDQRWSRNAELEQVNDDITQLVNAERSKQITVTTLLQLLPGKERQRDELKLERARFYKELKQSEAKGDAANLTLDEFFGLPIERQQEIVLHRLSAVIIHPAGKGRRRFDPSLIEPVWREGHHHHHH” the “soluble on expression in E. coli” value was “soluble”. With “DIGCYTLGGFEPLNAIDTTICMGASIGMAHGFEMARGKEFAKKSVAVIGDSTFWHSGVTGLIDIVYNKGHSTVIILDNSITAMTGHQENPSTGKTLSGERTNQIDFEALGRSIGINRICVVDAYDLKALEETIKEEVNAEEPSLIITKRPCVLIKGAKFDFKDYKIDP” the “soluble on expression in E. coli” value was “not soluble”. For “MASLLNARTAVITGGAQGLGLAIGQRFVAEGARVVLGDVNLEATEVAAKRLGGDDVALAVRCDVTQADDVDILIRTAVERFGGLDVMVNNAGITRDATMRTMTEEQFDQVIAVHLKGTWNGTRLAAAIMRERKRGAIVNMSSVSGKVGMVGQTNYSAAKAGIVGMTKAAAKELAHLGIRVNAIAPGLIRSAMTEAMPQRIWDQKLAEVPMGRAGEPSEVASVAVFLASDLSSYMTGTVLDVTGGRFI”, the “soluble on expression in E. coli” value was “soluble”. For “MGPNHPCGYLPGRDARFTYVSPAYPLSPQSYRGLLEEGFRRSGNWVYRPCCIGCSACLPVRLPVHDFRLTRSHRRVIKRNADIDIRVSVARFDERQFQLYVRYLAARHPTDTPVSRDDYWSFVSSSWAQTRFVEFRSYSELIGVAVVDHVPGALSAVYTFFDPDAAERSPGSLAILWQILEARRLGREWLYLGYWIGGCRKMEYKARYRPLEALIANRWRRFQVDEPLTSSVLLEHHHHHH”, the “soluble on expression in E. coli” value was “soluble”. In the case of “HSIISETTNTNYRQEFVQLGTQMSGKLSFEEWKELYRRIVFWEIELEQADRQMGELLEMQKQEANRLFARFVTQNYREWIAKPDTRPTMSPDLFKQKVFPLLDNGEKVFFILIDNFRQDQWESVKSMLSEFYTFEEDMYLSILPTATQYARNAIFSGLMPLQIEKMFPDLWVDEESEEGKNLNEEPMIRTLIERYRKHYSFSYNKVYETKFGERLLGQIRSLSQNQLNVIVLNFVDMMSHARTDSKMIRELASNEAAYRSLTKSWFKHSTTYNLFRSIAEMGYKVVLTTDHGTIQVKNPVKVIGDRSTNTNLRYKIGKNLDYNPKEVFEIKDPASVGLPHNNLSDKFIFTKEDDFFAYPNNYNYYVQYYRNTFQHGGISLEEMLVPVITMQPK”, the “soluble on expression in E. coli” value is reported as “soluble”. In the case of “MKITTWNVNSLNVRLPQVQNLLADNPPDILVLQELKLDQDKFPAAALQMMGWHCVWSGQKTYNGVAIVSRSVPQDVHFGLPALPDDPQRRVIAATVSGVRVINVYCVNGEALDSPKFKYKEQWFAALTEFVRDEMTRHGKLVLLGDFNIAPADADCYDPEKWHEKIHCSSVERQWFQNLLDLGLTDSLRQVHPEGAFYTWFDYRGAMFQRKLGLRIDHILVSPAMAAALKDVRVDLETRALERPSDHAPVTAEFDW”, the “soluble on expression in E. coli” value is reported as “soluble”. For “MESSIKVGISSCVLGERVRFDSGHKVSNFVTKELSNYFDFVSVCPEVGVGMPVPRPTIRLISNEERIALVETKNPDNDHTDNMLTYSANKVDELQNEQLCGYIVCAKSPTCGMERVKVYSKNNAAKEGVGLYTKTLMEKMPWLPVEEDGRLNDPVLKENFITRIYCLNDFYESMAGEPTRGKIIDFHSRYKLTLMAHHPESYRSLGRLVADVASYEIDEFYREYRLGLMTALSNRASRKNNTNVLMHLQGYFKRSLNKDEKEELATVIQDYRTGTLPLLAPLTLIKHYLNAYPDEYLQRQKFLEPHPQEMRLRYGL”, the “soluble on expression in E. coli” value was “not soluble”. With “MSLKHYQRINELEEKKIKLRERPVIDELSKVKKLKLTGQTEALFESWRSSWDEIETRLFPDLEEVLLEAEMNTDRYKFRSATHAENDIEQMLVVIEKQMDQILGGLKELLISEEKNAKESRATKEKFAELRREVLTRGFKLGETLPYIETKLSELSESLNSYDSLTDQGDHLEAREIVIVVQKEMQVIEAQMERIPSLLHETDTILPEEMTKLRAGYEEMVRKGYYLAQMELDKEISRMKNQIDKMKKNVINLDLDEAEQGVEELHNEIDLFYDTLEHEAEARHFVKENHSPTSDKLQRQNAVSDALAEQITEVKQTYHVAEDDLAVYLKTSAKLSEAKENFEQLTALIASGEIAYSAAQDTLKEIDAALITISAEQDKFAEELRSLRKDELEARDDAERMRRAIITLDRKMERERLPGLPEEYLSLREHMGESINALEKRLEEKPLNMKAVSQDWRIAEEDLTHLTEKAEEMMENVRLVEHVIQYANRYRLRNKELADELVQAENHFYNDYQYKKALEIAVTALEKVETGAFKKVEKAYESKVSVDEGHHHHHH” the “soluble on expression in E. coli” value was “soluble”. With “MAHHHHHHMTSTTQPKWTRLPIRTRPHRNPLAENSDNHPDCPAELQEQCTTLFPGMDNPVITLVDVGCAFGGMLFSLAPDFPDMCMLGLEIRPKVVEFAQNKVMKLREGAATDGTSHHYRNVWFEQLNVMKFGSNCFNKGQLQALFFCYPDPHWKRKNVRRRIISPGLVQEYAYWLKVGGFLFTVSDVEELERWMVTCLDGCPLFRQLSQEELAGNEMVRKMLDYAANSSEDAQRTTRKGLQKHYAVHVRVP” the “soluble on expression in E. coli” value was “not soluble”. For “MGSDKIHHHHHHMKTKHILFGIFISSAVTSCNSIKGSGNVVTSIRPVQEFSGIISSGSFNMYLTQSAVQEVKIIADDNVLQYIETNVRDGILTVTFKDKVHIKNSTRLDIYVSGPVIEKINLEGSGNIQTTNRLHSNNLVLVLNGSGKMVAEDACETAIVQLNGSGNITLTGKAKNQTASVSGSGNVNASGFTTENTTASLSGSGSIGLYATESLHASLSGSGSIRYSGNPASVKKEVSGSGMVESR”, the “soluble on expression in E. coli” value was “not soluble”. With “MRSSKGGRGRQAAPKTAPTTVCYCDGKRELGSVEVVCSTCLKWFHGRCLKEFHELNSNGVPFMICYTFTCKQCRPTAEDWKAKKADLVQMCVTVLATLSAERLKADGKLSAEHVPEDFTYLSLKDEIVPYMNENWYMLTAIKQKKEWHQNLAPTLLKEKNIFVQHNDDDDLFALAEKNLSLLGPLHEAVKLIGKRPIERENREPRHIELPPIEGPKTRGASKRRHAEAPVTGKKQKLAADYSSTAAPNGVQIDIPFSKDNYRYYLTEVDPNVPEDPAWNQNQSSAYVIPSFHYRELLNPTVNVSSNDRAFQLSINGNSITGFEGYSMARASHGVSKGTWYFEVNFDDQPDDSHIRIGWSQSYASLQACVGYNKFSYGWRSKHGTKFHEAKGKKYHFGGFKQGDVLGCLIHLPVDKKLQIPANLPSEKYLPVSHKGFNLISFKANYFFEVQEESADIAKTLVEMPGSYIEFFHNGKSCGKAYENIYAGAYYPSISIFKSATATMNLGPKFRNLPRGATGIHARADEQQHEQTLSDMLYLVSKEVNLDHPPRVKREDDDDVKDIKKEIKQEI” the “soluble on expression in E. coli” value was “not soluble”. For “MLLEISIYCRGGQGGVTAARILAATAMLQGYYSQSMPQFGPERRGAEVRAFLRISDERIRRKCPITYPDVVILFDLKLSFNGNPETVVVNCNGSSFTGHGNVFALDATEITRRYGLVNAGWPILGPAMAGTAAKALDLDPRCLLEAIRLELGDKADRSVKAAEEAYRVVECV”, the “soluble on expression in E. coli” value was “not soluble”.
